Measurements reported in US20130122591.

How the values were obtained:
Assay in all cases: cell_activity
[1] = test system: ZFN 29223 (engineered)
[2] = test system: TALEN 101284 (engineered)
[3] = test system: TALEN 101270 (engineered); details: pair with 101267, K562, 1600 ng, day 3
[4] = test system: ZFN 29250 (engineered)
[5] = test system: TALEN 101282 (engineered); details: pair with 101288, K562, 1600 ng, day 3
[6] = test system: TALEN 101278 (engineered)
[7] = test system: TALEN 101288 (engineered)
[8] = test system: ZFN 29216 (engineered)
[9] = test system: ZFN 29251 (engineered)
[10] = test system: ZFN 30179 (engineered)
[11] = test system: TALEN 101267 (engineered); details: pair with 101270, K562, 1600 ng, day 3
[12] = test system: TALEN 101271 (engineered); details: pair with 101272, K562, 1600 ng, day 3
[13] = test system: TALEN 101272 (engineered); details: pair with 101271, K562, 1600 ng, day 3
[14] = test system: TALEN 101276 (engineered)
[15] = test system: TALEN 101286 (engineered); details: pair with 101284, K562, 1600 ng, day 3

AAGCACTGAATAGAAATAGTGATAGATC (double strand) [29223 site]
activity ([1]; pair with 29216, rhesus LLC-MK2, printed as 29233): 2.7 % NHEJ

TTGCTGACCTGCTGGATT (double strand) [101284 site]
activity ([2]; pair with 101288, K562, 1600 ng, day 3): 62.2 % NHEJ
activity ([2]; pair with 101288, rhesus LLC-MK2): 8.7 % NHEJ

TGCTCACCACGAC (double strand) [101270 site]
activity [3]: 31.8 % NHEJ

ATCTCGAGCAAGACGTTCAGTCCTACAG (double strand) [29250 site]
activity ([4]; pair with 29251, K562, 800 ng, day 3): 69.2 % NHEJ
activity ([4]; pair with 29251, rhesus LLC-MK2 (sites stated conserved)): 8.2 % NHEJ

TTTGCTGACCTGCTGGAT (double strand) [101282 site]
activity [5]: 46.2 % NHEJ

canine HPRT locus, other sites
activity ([6]; pair with 101276, canine D17, 200 ng, 0 at 100 and 400 ng): 2.5 % NHEJ
activity ([2]; pair with 101288, canine D17, 100 ng): 25.1 % NHEJ
activity ([7]; pair with 101284, canine D17, 100 ng): 25.1 % NHEJ
activity ([8]; pair with 29223, canine D17): 0 % NHEJ
activity ([1]; pair with 29216, canine D17): 0 % NHEJ
activity ([9]; pair with 29250, canine D17, 200 ng, 0 at 100 and 400 ng): 2.8 % NHEJ
activity ([10]; pair with 29250, canine D17, 100 ng): 9.2 % NHEJ

ATGTAATCCAGCAGGTCAGCAAAGAATT (double strand) [29216 site]
activity ([8]; pair with 29223 (printed 29233), rhesus LLC-MK2): 2.7 % NHEJ

TCCGTTATGGCGAC (double strand) [101267 site]
activity [11]: 31.8 % NHEJ

TGGCGTCGTGGTGAGC (double strand) [101271 site]
activity [12]: 19.1 % NHEJ

TGGGCCTGAACCGGCC (double strand) [101272 site]
activity [13]: 19.1 % NHEJ

TGGCCTCCCATCTCCT (double strand) [101278 site]
activity ([6]; pair with 101276, K562, 1600 ng, day 3): 35.3 % NHEJ
activity ([6]; pair with 101276, rhesus LLC-MK2): 7.6 % NHEJ

TGGATCTATCACTATTT (double strand) [101288 site]
activity ([7]; pair with 101284, K562, 1600 ng, day 3): 62.2 % NHEJ
activity ([7]; pair with 101284, rhesus LLC-MK2): 8.7 % NHEJ

AACTTTTGTTAAATTCCTGATTTTATTTCTGTAGGACTGAGCGGCTTGCTCGAGATGTG (double strand) [canine HPRT region (29250/101276 site)]
activity ([14]; pair with 101278, canine D17, 200 ng, 0 at 100 and 400 ng): 2.5 % NHEJ
activity ([4]; pair with 30179, canine D17, 100 ng): 9.2 % NHEJ

TCTATCACTATTTCTAT (double strand) [101286 site]
activity [15]: 35.3 % NHEJ

TGATGAAGGAGATGGGAGGCCATCACAT (double strand) [29251/30179 site]
activity ([9]; pair with 29250, K562, 800 ng, day 3): 69.2 % NHEJ
activity ([9]; pair with 29250, rhesus LLC-MK2 (sites stated conserved)): 8.2 % NHEJ
activity ([10]; pair with 29250, rhesus LLC-MK2): 0 % NHEJ

TGTAGGACTGAACGTCTT (double strand) [101276 site]
activity ([14]; pair with 101278, K562, 1600 ng, day 3): 35.3 % NHEJ
activity ([14]; pair with 101278, rhesus LLC-MK2): 7.6 % NHEJ
